± gives the standard deviation of the averaged measurements.
Each sequence was assayed on ATP (assay: switch fluorescence ratio, 500 uM ATP over buffer (Cy3 cluster intensity, sum of 5 cycles each) (fold (ratio)); higher = stronger signal-on switching upon ATP binding; sequences stand for … in TCGTCGGCAGCGTCAGATGTGTATAAGAGACAGTTTTTTTTTTTTTTTTTTTTTTTTT…TC). Details: aptamer strand: ATP DNA aptamer (quencher-CACCTGGGGGAGTATTGCGGAGGAAGG + anchor), 100 nM annealed; ATP concentration: 500 uM.
Procedure, shortened: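 Clusters carrying Cy3-labelled switching strands on a modified Illumina MiSeq flow-cell were annealed to 100 nM quencher-labelled ATP aptamer and imaged in selection buffer. They were imaged again after 15 min with 500 uM ATP at 22 °C, over five buffer/ATP cycles with NaOH stripping and re-annealing in between. For each cluster, the fluorescence ratio is the summed Cy3 intensity of the target cycles divided by that of the buffer cycles, averaged per switch-domain sequence. Clusters outside 100-1000 RFU were left out.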
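Note: ATP exposure 15 min at 22 °C before imaging.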

| Sequence | switch fluorescence ratio |
| --- | --- |
| GATTAAGGAG | 0.995 ± 0.011 |
| GATTAATGTT | 1 ± 0.022 |
| GATTACAGCG | 1.01 ± 0.02 |
| GATTACGGGG | 1.006 ± 0.0014 |
| GATTAGATGT | 0.9917 ± 0.0067 |
| GATTAGGGGT | 0.99655 ± 0.00059 |
| GATTATATCT | 0.981 ± 0.033 |
| GATTATCAGA | 0.988 ± 0.027 |
| GATTATCTCG | 0.99 ± 0.049 |
| GATTATGAGT | 1.02 ± 0.018 |
| GATTATGGTT | 0.9891 ± 0.003 |
| GATTATTGGT | 0.987 ± 0.031 |
| GATTATTTGT | 1.03 ± 0.022 |
| GATTCAAACG | 1.006 ± 0.0073 |
| GATTCACGA | 0.984 ± 0.015 |
| GATTCAGGGG | 1.04 ± 0.026 |
| GATTCAGTAC | 1.61 ± 0.056 |
| GATTCCGTGT | 1.01 ± 0.031 |
| GATTCGGCGT | 0.9867 ± 0.0067 |
| GATTCGGCTA | 1.02 ± 0.021 |
| GATTCTCAAG | 0.9746 ± 0.0056 |
| GATTCTTTAC | 1.03 ± 0.029 |
| GATTGAGACT | 1.01 ± 0.026 |
| GATTGAGCTG | 1.02 ± 0.043 |
| GATTGATAGG | 0.99961 ± 0.00019 |

| Sequence | switch fluorescence ratio |
| --- | --- |
| GATTGCAAGG | 1.02 ± 0.02 |
| GATTGCACTT | 1.02 ± 0.031 |
| GATTGCAGGA | 0.9989 ± 0.0039 |
| GATTGCATGC | 1.032 ± 0.0014 |
| GATTGGCTGT | 0.966 ± 0.029 |
| GATTGGGGCA | 1.02 ± 0.046 |
| GATTGGGGCG | 1.02 ± 0.015 |
| GATTGGTAGG | 0.981 ± 0.017 |
| GATTGTAAGA | 1.16 ± 0.2 |
| GATTGTAGGC | 1.03 ± 0.011 |
| GATTGTCCGT | 0.981 ± 0.031 |
| GATTTAAAAT | 1.013 ± 0.0083 |
| GATTTAAAGG | 1.04 ± 0.025 |
| GATTTAGAAT | 1.01 ± 0.012 |
| GATTTAGCTG | 1 ± 0.035 |
| GATTTAGTAA | 0.9759 ± 0.0069 |
| GATTTATACT | 1.06 ± 0.014 |
| GATTTATTCG | 0.983 ± 0.014 |
| GATTTATTTG | 0.989 ± 0.048 |
| GATTTCGATG | 1.01 ± 0.013 |
| GATTTCGGGA | 1.01 ± 0.04 |
| GATTTCGTAT | 0.98 ± 0.014 |
| GATTTCTTAT | 0.999 ± 0.052 |
| GATTTGGGTT | 1.02 ± 0.041 |
| GATTTGTTGG | 0.9815 ± 0.0055 |

| Sequence | switch fluorescence ratio |
| --- | --- |
| GATTTGTTTG | 0.985 ± 0.026 |
| GATTTTAGTC | 0.993 ± 0.04 |
| GATTTTCAGT | 0.975 ± 0.013 |
| GATTTTCCAT | 1.03 ± 0.021 |
| GATTTTGACG | 1.04 ± 0.067 |
| GATTTTGGAT | 0.994 ± 0.012 |
| GATTTTGGCG | 1.01 ± 0.046 |
| GATTTTTAGG | 0.964 ± 0.015 |
| GATTTTTATC | 1.023 ± 0.0031 |
| GATTTTTGGC | 0.9945 ± 0.0087 |
| GATTTTTTAC | 0.995 ± 0.037 |
| GCAAAAAATT | 1.01 ± 0.025 |
| GCAAAAAGGC | 1.03 ± 0.015 |
| GCAAAACGGG | 1.02 ± 0.069 |
| GCAAAATTGG | 1.04 ± 0.02 |
| GCAAACGTTA | 1.07 ± 0.043 |
| GCAAAGGGCT | 1 ± 0.035 |
| GCAAATGCGT | 1.03 ± 0.059 |
| GCAACCACCG | 1.137 ± 0.0038 |
| GCAAGAACAG | 1.04 ± 0.036 |
| GCAAGAGATA | 1.02 ± 0.017 |
| GCAAGGAGCG | 1.03 ± 0.039 |
| GCAAGGAGGA | 0.996 ± 0.014 |
| GCAAGTGCAC | 0.978 ± 0.04 |
| GCAAGTTACG | 1.14 ± 0.041 |

| Sequence | switch fluorescence ratio |
| --- | --- |
| GCAAGTTAGA | 1 ± 0.017 |
| GCAAGTTGGG | 1.01 ± 0.028 |
| GCAATAATGC | 1.603 ± 0.014 |
| GCAATGATGT | 1.06 ± 0.03 |
| GCAATGGTAC | 2.21 ± 0.098 |
| GCAATGTAGG | 1.04 ± 0.03 |
| GCAATTGCTG | 0.9802 ± 0.0023 |
| GCAATTTAGA | 1.02 ± 0.016 |
| GCAATTTCAG | 1.05 ± 0.021 |
| GCACACCAGT | 1.04 ± 0.014 |
| GCACACCGAG | 1.083 ± 0.0059 |
| GCACATGGCA | 1.02 ± 0.015 |
| GCACATGGTG | 1.05 ± 0.021 |
| GCACATTATG | 0.985 ± 0.011 |
| GCACCAAGGA | 1.07 ± 0.036 |
| GCACCTATAT | 1.04 ± 0.039 |
| GCACGCAACT | 1.32 ± 0.013 |
| GCACGCGGGG | 1.009 ± 0.0015 |
| GCACGCTAGG | 1.07 ± 0.041 |
| GCACGTTTTT | 1 ± 0.03 |
| GCAGAAGGTA | 1.01 ± 0.029 |
| GCAGAGGGC | 1 ± 0.012 |
| GCAGAGGGGA | 0.981 ± 0.039 |
| GCAGAGTCGT | 0.999 ± 0.037 |
| GCAGCAGGGT | 1.101 ± 0.0034 |

Reference: the supplement of paper PMC10126150
